Where two headings read alike, the source gives them in different places.
How the values were obtained:
[1] = target: Thermotoga maritima TsaB2D2 complex (Thermotoga maritima) (UniProt Q9WZX7); assay: ITC
[2] = target: Thermotoga maritima TsaB2D2 complex (Thermotoga maritima) (UniProt Q9WZX7); assay: SEC
[3] = target: Thermotoga maritima TsaB2D2 complex (Thermotoga maritima) (UniProt Q9WZX7); assay: SEC; remark: listed apart in the source
[4] = target: Thermotoga maritima TsaB2D2 complex (Thermotoga maritima) (UniProt Q9WZX7); assay: ITC; remark: listed apart in the source
[5] = target: Thermotoga maritima TsaB2D2 complex (Thermotoga maritima) (UniProt Q9WZX7); assay: ITC; remark: listed apart in the source

Sequence of Thermotoga maritima TsaB2D2 complex (Thermotoga maritima) (Q9WZX7 whole entry, chain 1 of 2): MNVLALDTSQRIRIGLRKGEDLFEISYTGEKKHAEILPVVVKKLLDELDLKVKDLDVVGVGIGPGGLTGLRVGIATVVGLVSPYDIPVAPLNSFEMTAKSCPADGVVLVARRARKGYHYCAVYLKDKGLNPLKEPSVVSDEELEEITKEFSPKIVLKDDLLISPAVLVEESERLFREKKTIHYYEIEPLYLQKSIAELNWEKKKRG
Sequence of Thermotoga maritima TsaB2D2 complex (Thermotoga maritima) (Q9WXZ2 whole entry, chain 2 of 2, further chain): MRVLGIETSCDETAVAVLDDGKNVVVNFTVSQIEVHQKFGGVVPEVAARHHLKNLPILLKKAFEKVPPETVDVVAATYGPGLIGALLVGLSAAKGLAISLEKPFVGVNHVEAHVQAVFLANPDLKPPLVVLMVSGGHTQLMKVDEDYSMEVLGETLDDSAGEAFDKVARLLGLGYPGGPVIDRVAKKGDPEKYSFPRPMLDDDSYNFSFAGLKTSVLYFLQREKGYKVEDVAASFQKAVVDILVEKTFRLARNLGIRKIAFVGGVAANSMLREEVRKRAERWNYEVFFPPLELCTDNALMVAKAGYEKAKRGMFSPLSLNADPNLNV

| Substance | Kd [1] [nM] | dH [1] [kcal/mol] | stoichiometry N [1] | stoichiometry N (TsaE per TsaB2D2) [2] | stoichiometry N (TsaE per TsaB2D2) [3] | Kd [4] [nM] | dH [4] [kcal/mol] | stoichiometry N [4] | Kd [5] [nM] | dH [5] [kcal/mol] | stoichiometry N [5] |
| --- | --- | --- | --- | --- | --- | --- | --- | --- | --- | --- | --- |
| Thermotoga maritima TsaE (natural protein) | 1300 | 11.9 | 2.11 | 1 | 2 | 340 | 7.44 | 2.72 | 1100 | 1.54 | 2.16 |
| Thermotoga maritima TsaE E108A mutant (natural protein) | 1100 | 9.3 | – | – | – | 2400 | 11.9 | 1.91 | – | – | – |
| Thermotoga maritima TsaE T42A mutant (natural protein) | 1400 | 8 | – | – | – | 1100 | 10.3 | 2 | – | – | – |

Reference: paper PMC5814804
